Laboratory results reported in patent US10494417B2, “Peptide inhibitors of BCR-ABL oligomerization” (University of Utah Research Foundation, priority 2014, dated 2019).
Values joined by “and” are separate entries in the source; they are usually repeats but may differ in a detail not shown here. Equal values may be shown once. “Also recorded” adds a separate entry of the source.

Key:
K562 cells = experiment: Nuclear (DNA) segmentation apoptosis assay in transfected K562 cells; assay type: cell-based, human; conditions: 48 h, vs EGFP control
Method: CC^mut3 was then tested for its ability to induce apoptosis in K562 cells. Apoptosis was observed using 3 different methods: 1) nuclear segmentation; 2) induction of the effector Caspase-3/7; and 3) 7AAD/Annexin V staining.
Nuclear segmentation analysis was performed as previously described (16). Briefly, immediately prior to cellular analysis, 2-well live cell chambers were treated for 15 min with poly-L-lysine (Sigma-Aldrich, St. Louis, Mo., USA), to allow cell adhesion in the wells. Forty-eight h following transfection, the transfected K562 cells were transferred to the pretreated 2-well live cell chambers. Cells were incubated for 15 min at 37° C. following the addition of 0.3 μL Hoechst H33342 nuclear stain (Life Technologies, Carlsbad, Calif., USA). Cells were then imaged using an inverted fluorescence microscope (Olympus IX701F, Scientific Instrument Co., Sunnyvale, Calif., USA) equipped with an F-view Monochrome CCD camera. Fields of view were selected based on EGFP fluorescence when viewing using a 40× oil immersion objective. Nuclei from cells that were positively transfected (positive for EGFP fluorescence) were categorized as either healthy (round or kidney-shaped nuclei) or segmented (punctate staining of nuclei), and the percentage of cells with segmented DNA was calculated (n=3 in replicate).

[1] = tested on: CD34+ cells from newly diagnosed CML patients; experiment: Proliferation of lentivirus-infected CD34+ cells from newly diagnosed CML patients; assay type: cell-based, human; conditions: for cell growth, in words: lentiviral CCmut3 compared with EV cells treated with 2.5 μM imatinib
Method: Mononuclear cells (MNCs) were separated from the peripheral blood of patients with newly diagnosed or therapy-resistant CML with a documented T315I mutation, using Ficoll (Nycomed, Oslo, Norway). Isolation of the CD34^+ fraction was done on an autoMACS Pro (Miltenyi Biotech). CD34^+ progenitors were maintained at 1×10^6 cells/mL in RPMI1640 containing 20% FBS and 5 μL/mL StemSpan CC100 (Stem Cell Technologies, Vancouver, BC, Canada). Cells were infected with lentivirus at a multiplicity of infection (MOI) of 5 for each construct at 24 and 48 hours following harvest (fresh cells) or thaw (frozen cells). Cells were sorted on a BD FACSAria cytometer after 72 h, and GFP-positive cells were returned to culture medium for future experiments. All patients gave their informed consent in accordance with the Declaration of Helsinki, and all studies with human specimens were approved by The University of Utah Institutional Review Board (IRB).
Cell proliferation was assessed using the CellTiter 96® AQueous One Solution Cell Proliferation Assay (MTS assay, Promega) according to manufacturer instructions. […] In some experiments, cell proliferation was assessed using a Neubauer chamber and trypan blue dye exclusion.
Mononuclear cells (MNCs) from peripheral blood of patients with newly diagnosed or TKI-resistant CML were separated by Ficoll (Nycomed, Oslo, Norway), and the CD34+ fraction was isolated using an autoMACS Pro Separator (Miltenyi Biotech, San Diego, Calif., USA). Purity was determined to be >90% by flow cytometric analysis using a Guava 6HT flow cytometer (Millipore, Billerica, Mass., USA). […]
293FT cells (Life Technologies, Grand Island, N.Y., USA) were grown in DMEM with 10% FBS, 100 U/ml penicillin-streptomycin, 2 mM L-glutamine, 0.1 mM MEM-non-essential amino acids, and 1 mM sodium pyruvate (Life Technologies, Grand Island, N.Y., USA). […] Lentiviral titers were determined. […]
Cell proliferation was assessed using a […] viability assay (MTS assay) utilizing CellTiter 96® AQueous One Solution Cell Proliferation Assay (Promega) according to manufacturer instructions. […]

Ba/F3-p210-T315I cells = experiment: Annexin V/7-AAD apoptosis assay in Ba/F3 BCR-ABL1 T315I cells; assay type: cell-based, mouse; conditions: 72 h, CCmut3 vs EV
Method: Assays were run in triplicate (n=3).
(§1) For analysis of apoptosis and cell death, cells were pelleted and resuspended in Annexin V-binding buffer (BD Biosciences), stained with anti-Annexin V-APC (BD Biosciences or Life Technologies) and 7-AAD (BD Biosciences or Life Technologies) and analyzed on a BD FACSCanto flow cytometer. In addition to the APC and 7-AAD channels, GFP- and mCherry-positive cells were also recorded.
as §1, with “apoptosis and necrotic cell death,” for “apoptosis and cell death,”, “anti-Annexin V-APC and 7-AAD” for “anti-Annexin V-APC (BD Biosciences or Life Technologies) and 7-AAD”

[2] = tested on: Ba/F3 cells expressing BCR-ABL1E255V/T315I; experiment: Annexin V/7-AAD apoptosis assay in Ba/F3 BCR-ABL1 E255V/T315I cells; assay type: cell-based, mouse; conditions: 72 h, CCmut3 vs EV
Method: as §1
as §1, with “apoptosis and necrotic cell death,” for “apoptosis and cell death,”, “anti-Annexin V-APC and 7-AAD” for “anti-Annexin V-APC (BD Biosciences or Life Technologies) and 7-AAD”

B1: CCmut3: modified Bcr-Abl coiled-coil domain (residues 1-72) with mutations C38A, K39E, S41R, L45D, E48R, Q60E (protein)
chain: MVDPVGFAEAWKAQFPDSEPPRMELRSVGDIEQELERAEARIRRDEQRVNQERFRMIYLETLLAKEKKSYDR
induction of apoptosis (nuclear/DNA segmentation) (K562 cells): increase in apoptosis; also recorded: significantly induced apoptosis
induction of apoptosis (nuclear/DNA segmentation) (K562 cells; listed as CC^mut3): induces apoptosis; also recorded: causing apoptosis via nuclear segmentation
cell growth, in words [1]: significant reduction compared to inhibition by imatinib
cell growth, in words ([1]; listed as CC^mut3): considerably more pronounced reduction of growth than observed with IM
reduction of cell proliferation/growth ([1]; lentiviral CCmut3 vs EV, trypan blue exclusion): more than 2 fold
apoptosis, in words (Ba/F3-p210-T315I cells): increase of apoptosis
increase in apoptosis (Ba/F3-p210-T315I cells): 6-8 fold and > 5 fold
apoptosis, in words (Ba/F3-p210-T315I cells; listed as CC^mut3): significant shift toward the apoptotic fraction
increase in apoptosis (Ba/F3-p210-T315I cells; listed as CC^mut3): 6-8 fold
apoptosis, in words [2]: Enhanced apoptosis; also recorded: effectively induced apoptosis
apoptosis, in words ([2]; listed as CC^mut3): significantly more apoptotic; also recorded: sensitive
